Here are results for one molecule from paper PMC5028113.

The target in this data set is interferon-gamma (IFN-γ) (UniProt P01579 24-161). The data set is described as follows: competition.
interferon-gamma (IFN-γ), sequence (P01579 24-161): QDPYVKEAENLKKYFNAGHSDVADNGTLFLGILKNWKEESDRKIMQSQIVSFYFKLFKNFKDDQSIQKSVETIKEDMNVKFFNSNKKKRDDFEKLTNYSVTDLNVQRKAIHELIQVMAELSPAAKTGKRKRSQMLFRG

B1: IFN-γ aptamer hybridized with biotin-DNA and thiol-DNA (invertase conjugate) (mixed)
DNA 1: TGGGGTTGGTTGTGTTGGGTGTTGTGTAAAAAAAAAAAAAACTACTCATCTGTGA
DNA 2: AAAAAAAAAAAATCACAGATGAGTAGT
?: AAAAAAAAAAACAACCAACCCCA
modifications: 5' biotin on strand 2; 5' thiol on strand 3
As to B1, the binding result is on record as “binds”.
